From patent publication US9688764B2, “Methods of treating breast cancer by administering anti-human prolactin receptor (PRLR) antibodies” (REGENERON PHARMACEUTICALS, INC., priority 2013, dated 2017)

Experiments:
[1] = system: HEK293 (293) cells; test: Cell viability (cell kill) assay; format: cell-based; details: 293; Table 11; 3 days
Text: (§1) PRLR-overexpressing cells, including HEK293, PC3, MCF7 and NCI-N87, were generated to assess the ability of anti-PRLR conjugated antibodies to reduce cell viability. For comparative purposes, PC3 and T47D cells with overexpressed ErbB2 were also generated, as well as an MCF7 cell line over-expressing both hPRLR and hErbB2. Briefly, Lipofectamine® 2000-mediated transfection methodology was utilized to generate HEK293 cells expressing human PRLR (HEK293/hPRLR) or human ErbB2 (HEK293/hErbB2). Lipofectamine LTX with Plus Reagent was used to generate PC3 cells expressing human PRLR (PC3/hPRLR) or human ErbB2 (PC3/hErbB2). Lentiviral-mediated transduction was utilized to generate MCF7 cells expressing human PRLR (MCF7/hPRLR), NCI-N87 cells expressing human PRLR (NCI-N87/hPRLR), T47D cells over-expressing human ErbB2 (T47D/hErbB2), and MCF7 cells expressing both human PRLR and human ErbB2 (MCF7/hPRLR/hErbB2). All lines were selected for at least two weeks in complete growth media plus appropriate selection reagents. Stably expressing populations were enriched for PRLR expression via FACS using the anti PRLR antibody Control I.
(§2) Next, the ability of anti-PRLR-DM1 antibody-drug conjugates (i.e., anti-PRLR antibodies conjugated to DM1 via a non-cleavable linker [SMCC]) to reduce cell viability was determined using in vitro cell based assays. Cells were seeded in PDL-coated 96 well plates at 1500 to 10000 cells per well in complete growth media and allowed to grow overnight. For cell viability curves, ADCs or free DM1 (as the methyl disulfide derivative DM1-SMe) were added to the cells at final concentrations ranging from 500 nM to 5 pM and incubated for 3 days. The 293, PC3 and T47D cells were incubated with CCK8 (Dojindo, Rockville, Md.) for the final 1-3 hours and the absorbance at 450 nm (OD450) was determined on a Flexstation3 (Molecular Devices, Sunnyvale, Calif.). MCF7 cells were treated with Hoechst 33342 nuclear stain while being fixed with 4% formaldehyde. Images were acquired on the ImageXpress micro XL (Molecular Devices, Sunnyvale, Calif.) and nuclear counts were determined via Columbus image analysis software (Perkin Elmer, Shelton, Conn.). Background OD450 values (PC3, 293, and T47D) or nuclear counts (MCF7) from digitonin (40 nM) treated cells was subtracted from all wells and viability was expressed as a percentage of the untreated controls. IC50 values were determined from a four-parameter logistic equation over a 10-point response curve (GraphPad Prism).

[2] = system: PC3/hPRLR cells; test: Cell viability (cell kill) assay; format: cell-based, human; details: PC3/PRLR; Table 11; 3 days
Text: as §1, §2
(§3) Finally, the potency of anti-PRLR antibodies conjugated to DM1 via the non-cleavable linker SMCC was compared to the cell killing potency of anti-PRLR antibodies conjugated to MMAE via the cleavable linker: mc-vc-PAB (available from Concortis, San Diego, Calif.). Cells used in this experiment were PC3, PC3/hPRLR, MCF7/ATCC and MCF7/PRLR.

[3] = system: MCF7 (MCF7/ATCC) cells; test: Cell viability (cell kill) assay, nuclear counts; format: cell-based; details: MCF7; Table 12; 3 days
Text: as §1, §2, §3
(§4) Additional toxins (DM4, MeNHC3-May, and MMD) conjugated to anti-PRLR antibodies were also tested in T47D and MCF7/hPRLR cell lines, and results are summarized in Tables 19 (293 and T47D cell killing) and 20 (MCF7/ATCC and MCF7/PRLR cell killing). (ND=not detected).

[4] = system: MCF7/hPRLR (MCF7/PRLR) cells; test: Cell viability (cell kill) assay, nuclear counts; format: cell-based, human; details: Table 12, 3 days
Text: as §1, §2, §3, §4

[5] = system: T47D cells; test: Cell viability (cell kill) assay; format: cell-based; details: T47D, Table 12, 3 days; for IC50: read-out: IC50
Description: as §2
Additionally, the impact of the PRLR ligand, PRL, on PRLR-SMCC-DM1 cell kill in T47D cells was assessed. T47D cells were incubated simultaneously with PRL (15 nM) and either a non-blocking anti PRLR antibody (H1H6782P) or a receptor blocking antibody (H1H6958N2).
as §4

[6] = system: MCF7/PRLR tumors; test: Tumor growth inhibition in xenograft-bearing mice; format: in vivo, NCr nude mice; details: for Final Tumor size mm^3 (mean ± SEM): MCF7/PRLR tumors TRIAL #2, NCr Nude mice, Day 63
Text: (§5) Briefly, 20×10^6 MCF7/PRLR cells (ATCC HTB-22 transfected with full length hPRLR as previously described) were implanted subcutaneously into the left mammary fat pad of female NCr nude mice. In other studies, 10×10^6 PC3/PRLR (ATCC CRL-1435 transfected with full length hPRLR as previously described) were implanted subcutaneously into the left flank of male SCID mice. Additionally, 10×10^6 parental T47D (ATCC HTB-133) or […] T47D#11 cells (ATCC HTB-133 serially passaged in vivo as described below) were subcutaneously implanted into the left flank of female CB17 SCID mice. All mice were obtained from Taconic (Hudson, N.Y.). Each bolus of cells was supplemented with a 90-day estrogen release pellet (1.7 mg/pellet; Innovative Research America, Sarasota Fla.). Once tumors had reached an average volume of 250 mm^3, mice were randomized into groups of seven and dosed with anti-PRLR antibody-drug conjugates of the invention or control reagents. Control reagents included PBS vehicle, free methyl-disulfide DM1 (DM1-SMe) and isotype Control 1-DM1.
(§6) In multi-dose studies, mice were dosed once a week for a total of three weeks with tumor volumes and body weights being monitored twice weekly throughout the study. Test ADCs were dosed at 5 and/or 15 mg/kg in the multi-dose studies. In single-dose studies, mice received a single dose of test ADC, and tumor volumes and body weights were monitored twice weekly throughout the study. Test ADCs were dosed at 1, 2.5, 5, and 15 mg/kg in the single-dose studies. Average tumor size as well as tumor growth inhibition relative to the vehicle treated group were calculated for each group. Tumors were measured with calipers twice a week until the average size of the vehicle group reached 1000 mm^3. Tumor size was calculated using the formula (length×width^2)/2. Tumor growth inhibition was calculated according to the following formula: (1−((Tfinal−Tinitial)/(Cfinal−Cinitial)))*100, where T (treated group) and C (control group) represent the mean tumor mass on the day the vehicle group reached 1000 mm^3. […] Results are summarized in Tables 21-25 (multi-dose) and Table 26 (single dose). (NT=not tested in the particular experiment shown).

[7] = system: PC3/PRLR tumors; test: Tumor growth inhibition in xenograft-bearing mice; format: in vivo, SCID mice; details: for Average Tumor Growth Inhibition (%): multi-dose 15 mg/kg, SCID mice
Text: as §5, §6

[8] = system: T47D#11 tumors; test: Tumor growth inhibition in xenograft-bearing mice; format: in vivo, CB17 SCID mice
Text: as §5, §6

[9] = Conjugate characterization: protein and linker/payload concentrations, payload loading (UV, MALDI-TOF, SEC-HPLC, RP-HPLC); format: physicochemical; details: Anti-PRLR-SMCC-DM1 conjugates; Table 9
Text: Selected anti-PRLR antibodies were conjugated to the maytansinoid DM1 through an SMCC linker using methods similar to those set forth in U.S. Pat. No. 5,208,020 and US Patent Application Publication No. 2010/0129314, the disclosures of which are incorporated by reference herein in their entireties. The conjugates were purified by size exclusion chromatography and sterile filtered. All starting materials and solvents were purchased commercially and used without purification, unless otherwise noted.
Protein and linker/payload concentrations were determined by UV spectral analysis and MALDI-TOF mass spectrometry. Size-exclusion HPLC established that all conjugates used were >95% monomeric, and RP-HPLC established that there was <0.5% unconjugated linker payload. Yields are reported in Table 8 and 9 based on protein. All conjugated antibodies were analyzed by UV for linker payload loading values according to Hamblett et al, 2004, Clinical Cancer Research 10(20):7063-7070, and by mass difference, native versus conjugated.

[10] = system: PC3 cells; test: Cell viability (cell kill) assay; format: cell-based; details: Table 11, 3 days
Text: as §1, §2, §3

[11] = system: HEK293/hPRLR (293/hPRLR) cells; test: Cell viability (cell kill) assay; format: cell-based, human; details: 293/PRLR, Table 11, 3 days; for IC50: read-out: IC50
Text: as §1, §2

| Molecule | IC50 [1] [nM] | % Kill [2] [%] | IC50 [2] [nM] | % Kill [3] [%] | IC50 [3] [nM] | % Kill [4] [%] | IC50 [4] [nM] | % Kill [5] [%] | IC50 [5] [nM] | Payload:Antibody Molar Ratio (MS) [9] | % Kill [1] [%] | % Kill [11] [%] | IC50 [11] [nM] | Payload:Antibody Molar Ratio (UV) [9] | other results |
| --- | --- | --- | --- | --- | --- | --- | --- | --- | --- | --- | --- | --- | --- | --- | --- |
| H1H6782P-DM1: anti-PRLR antibody H1H6782P conjugated to DM1 through an SMCC linker (conjugate) VH: EVQLVESGGGLVQPGRSLRLSCAASGFTFDDYAMHWVRQAPGKGLEWVSGIIWNSGHIGYGDSVKGRFTISRDNAKKSLYLQMNSLRAEDTALYYCARDSGRYQSYFDYWGQGTLVTVSS VL: DIQMTQSPSTLSASVGDRVTITCRASHIISSWLAWYQQKPGKAPKVLIFKASSLESGVPSRFSGSGSGTEFTLTISSLQPDDFATYYCQQYNTYSRTFGQGTKVEIK | 100 | 64 | 0.92 | 57 | 120 | 85 | 0.65 | 74 | 4.19 | 2.8 |  |  |  |  | Final Tumor size mm^3 (mean ± SEM) ([6]; multi-dose 5 mg/kg): 74 ± 34 mm^3; Final Tumor size mm^3 (mean ± SEM) ([6]; multi-dose 15 mg/kg): 0 ± 0 mm^3; Average Tumor Growth Inhibition (%) ([7]; PC3/PRLR tumors TRIAL #2, Day 55): 85%; Average Tumor Growth Inhibition (%) ([8]; T47D#11 tumors, multi-dose 5 mg/kg, SCID mice, Day 66): 90%; effect on T47D#11 tumor growth ([8]; multi-dose, 5 and 15 mg/kg): potently inhibited tumor growth |
| H1H6975N-DM1 (conjugate) VH: EVHLVESGGGLVQPGGSLRLSCAASGFTFSSYEMNWVRQTPGKGLEWISHISSRSVIIYYADSVKGRFTISRDNAKNSLFLQMNSLRAEDTAVYFCAGITIFGIPEYWGQGTLVTVSS VL: EIVLTQSPATLSLSPGERATLSCRASQSVSSYFAWYQQKPGQAPRLLIYDASSRATGIPTRFSGSGSGTDFTLTISSLEPEDFAVYYCQQRSSWPITFGQGTRLEIK | 100 | 68 | 2.7 | 73 | 150 | 87 | 0.49 | 80 | 6.9 |  | 87 |  |  |  | IC50 [10]: 200 nM; effect on MCF7/PRLR tumor growth ([6]; multi-dose trial 1, 5 and 15 mg/kg): potently inhibited MCF7/PRLR tumor growth; Average Tumor Growth Inhibition (%) ([7]; PC3/PRLR tumors TRIAL #1, Day 63): 38%; effect on PC3/PRLR tumor growth ([7]; multi-dose, especially at 15 mg/kg): demonstrated inhibition of tumor growth |
| H1H6960N-DM1 (conjugate) VH: EVQLVESGGGLVKPGGSLRLSCAASGITFSSYSMNWVRQAPGKGLEWVSSISTRSSLIHYADSVKGRFTISRDNAKNSLYLQMNSLRDEDTAVYYCARWDAAAAFDYWGQGTLVIVSS VL: DIQLTQSPSFLSASVGDRVTITCWASQGISSYLAWYQQKPGKAPKLLIYVASTLQSGVPSRFSGSGSGTEFTLTISSLQPEDFATYFCQQLNSYPLTFGGGTKVEIK |  | 82 | 1.13 | 77 | 100 | 78 | 0.29 | 71 | 5.1 | 3.0 | 100 | 95 | 0.38 | 3.6 |  |
| H1H6959N2-DM1 (conjugate) VH: EVQLVESGGGLVQPGRSLRLSCAASGFTFDDYAMHWVRQAPGKGLEWVSGISWHSGIIGYADSVKGRFTISRDNAKNSLYLQMNSLRTEDAALYYCAKIGSYFYFDSWGQGTLVTVSS VL: EIVLTQSPGTLSLSPGERATLSCRASQSVSSNYLAWYQQKPGQAPRLLIYGASSRATGIPDRFSGSGSGTDFTLTISRLEPEDFAVYYCQQFGSSGYTFGQGTNLEIK |  | 82 | 11.6 | 82 | 100 | 80 | 0.47 | 71 | 48.9 | 3.3 | 100 | 95 | 4.82 | 3.8 |  |
